Reference: FireProtDB (doi:10.1002/prot.20212)
Where “and” joins values, the source holds several entries; their conditions need not be identical. Equal entries are not always repeated.

Conditions: Capra hircus, 25 °C, GdnHCl, CD, Tris 20 mM, Na+ 80 mM, whole UniProt chain shown

B1: Alpha-lactalbumin wild type, P00712 (protein)
chain: MMSFVSLLLVGILFHATQAEQLTKCEVFQKLKDLKDYGGVSLPEWVCTAFHTSGYDTQAIVQNNDSTEYGLFQINNKIWCKDDQNPHSRNICNISCDKFLDDDLTDDIVCAKKILDKVGINYWLAHKALCSEKLDQWLCEKL
In the case of B1, the denaturant m value (pH 4.5, transition: 3) is reported as 1.34 kcal/mol/M and 1.19 kcal/mol/M, the unfolding free energy (pH 4.5, transition: 3) is reported as 3.39 kcal/mol and 3.38 kcal/mol and the denaturant m value (pH 4.5) is reported as 2.53 kcal/mol/M. The unfolding free energy (pH 4.5) was 6.79 kcal/mol, the denaturant m value (pH 5.5) was 2.75 kcal/mol/M and the unfolding free energy (pH 5.5) was 8.8 kcal/mol. The denaturant m value (pH 7.5) was 3 kcal/mol/M and the unfolding free energy (pH 7.5) was 10.2 kcal/mol.
